Assay results published in patent publication US20160326257A1 (PIERRE FABRE MEDICAMENT, published 2016).
Numbering of substitutions follows the chain as printed.

B1: enzymatically deglycosylated m1022C3 (antibody, V domains shown)
VH: QVTLKESGPGILQPSQTLSLTCSFSGFSLDTSGMGVSWIRQPSGKGLEWLAHIYWDDDKRYNPSLKSRLTISKDTSSNQVFLKITSLDTADTATYYCARRSHFGNYYYAMDYWGQGTSVTVTS
VL: DVQMTQTTSSLSASLGDRVTISCRASQDISSYLNWYQQKPDGTFKLLIFYTSRLQSGVPSKYSGSGSGTDYSLTISNLEQEDIAAYFCQQGKTLPLTFGAGTKLELK
notes: also called enzymatically deglycosylated 1022C3
B2: m1022C3 (murine anti-ADAM17 monoclonal antibody 1022C3, hybridoma I-4686) (antibody, V domains shown)
VH: B1 VH with D30N
VL: B1 VL
modifications: N-glycosylated asparagine in CDR-H1
notes: Murine antibody from a hybridoma; also called mAb 1022C3; mAb m1022C3

Tests used:
[1] = target: T1, human ADAM17 on tumour cells (A431, MCF-7, NCI-H1299) (human, UniProt P78536 215-824); experiment: binding to NCI-H1299 tumour cells, read as MFI against antibody concentration (Log [M])
T1 construct: Endogenous ADAM17 on human tumour cell lines; also called cellular form of ADAM17

[2] = target: M1-602H603-671 (p-c-d-mpd (Nter)-MPD (Cter)) murine/human chimeric ADAM17 human Fc fusion (murine; human) (UniProt Q9Z0F8); experiment: SPR Biacore X100, about 700 RU m1022C3 captured, construct at 250 nM for 3 min
[3] = target: ADAM17 fragments and chimeric constructs giving the positive response (BIAcore); experiment: as above
[4] = target: M1-671 (p-c-d-mpd) murine ADAM17 human Fc fusion (murine) (UniProt Q9Z0F8); experiment: as above
[5] = target: soluble ADAM17 (extracellular domain of ADAM-17) (human, UniProt P78536 215-671); experiment: SPR Biacore, antibody captured on rabbit anti-mouse IgG, soluble ADAM17 400 to 12.5 nM, 1:1 Langmuir model
Procedure: The antibody (ligand) was bound to the second flowcell of a Biacore CM5 sensor chip (GE Healthcare) activated on both flowcells with a Rabbit anti-Mouse (RAM) IgG (H+L) covalently linked to the carboxymethyldextran matrix. Soluble ADAM17 (analyte) at concentrations ranging from 400 to 12.5 nM obtained by a two fold dilution scheme (assuming a molecular weight of 52 kDa) was injected onto the surface at a flow rate of 30 μl/min in a 120 s pulse (association) plus an extra 180 s delay for the dissociation phase measurement. The RAM surface was regenerated using NaOH 30 mM, NaCl 150 mM and 10 mM Glycine, HCl pH 1.5 buffer solutions. Curves obtained at each concentration were double referenced by first subtracting the signal from the reference FC1 surface (RAM without any mouse anti-TACE mAb) followed by subtraction of the signal obtained from a running buffer injection (Biacore HBS-EP buffer).
Data were processed using BIAevaluation 3.1 software using the 1:1 Langmuir model. The suitability of the fit was measured by the values of the Refractive Index (RI) which have to tend to zero and the κ² value.

[6] = target: T1, human ADAM17 on tumour cells (A431, …); experiment: cell-based or functional assay
[7] = target: T2, H223-602 (C-D MPD (Nter)) human ADAM17 human Fc fusion (human, UniProt P78536 223-602); experiment: SPR Biacore X100, about 700 RU m1022C3 captured, construct at 250 nM for 3 min
T2 construct: Expressed in HEK293 and purified on protein A; not shown: human Fc domain at the C-terminus
Procedure: (§1) The experiment was performed on a Biacore X100 device. The mAb 1022C3 is used as the ligand and the ADAM17 fragments and chimeric constructs are used as the analyte. The experiment is run at 10 μl/min at 25° C. on a rabbit anti-mouse polyclonal antibody (Mouse antibody capture kit, BR-1008-38, GE Healthcare) covalently linked to the matrix of both flowcells of a CM5 sensorchip (BR-1000-12) using the amine coupling kit (BR-1000-50, GE Healthcare), using the HBS-EP+ buffer (BR-1008-26, GE Healthcare) as the running buffer. This buffer is also used for the dilutions of the ligand and the analytes.

[8] = target: T3, H475-563 (D) human ADAM17 human Fc fusion (human, UniProt P78536 475-563); experiment: as above
T3 construct: Expressed in HEK293 and purified on protein A; not shown: human Fc domain at the C-terminus
Procedure: as §1

[9] = target: T4, H603-671 (MPD (Cter)) human ADAM17 human Fc fusion (human, UniProt P78536 603-671); experiment: as above
T4 construct: Expressed in HEK293 and purified on protein A; not shown: human Fc domain at the C-terminus
Procedure: as §1

[10] = target: T5, H1-474 (P-C) human ADAM17 human Fc fusion (human, UniProt P78536 18-474); experiment: as above
T5 construct: Expressed in HEK293 and purified on protein A; not shown: human Fc domain at the C-terminus
Procedure: as §1

[11] = target: T6, H475-602 (D-MPD (Nter)) human ADAM17 human Fc fusion (human, UniProt P78536 475-602); experiment: as above
T6 construct: Expressed in HEK293 and purified on protein A; not shown: human Fc domain at the C-terminus
Procedure: as §1

[12] = target: T7, H223-563 (C-D) human ADAM17 human Fc fusion (human, UniProt P78536 223-563); experiment: as above
T7 construct: Expressed in HEK293 and purified on protein A; not shown: human Fc domain at the C-terminus
Procedure: as §1

Chain of soluble ADAM17 (extracellular domain of ADAM-17) (P78536 215-671): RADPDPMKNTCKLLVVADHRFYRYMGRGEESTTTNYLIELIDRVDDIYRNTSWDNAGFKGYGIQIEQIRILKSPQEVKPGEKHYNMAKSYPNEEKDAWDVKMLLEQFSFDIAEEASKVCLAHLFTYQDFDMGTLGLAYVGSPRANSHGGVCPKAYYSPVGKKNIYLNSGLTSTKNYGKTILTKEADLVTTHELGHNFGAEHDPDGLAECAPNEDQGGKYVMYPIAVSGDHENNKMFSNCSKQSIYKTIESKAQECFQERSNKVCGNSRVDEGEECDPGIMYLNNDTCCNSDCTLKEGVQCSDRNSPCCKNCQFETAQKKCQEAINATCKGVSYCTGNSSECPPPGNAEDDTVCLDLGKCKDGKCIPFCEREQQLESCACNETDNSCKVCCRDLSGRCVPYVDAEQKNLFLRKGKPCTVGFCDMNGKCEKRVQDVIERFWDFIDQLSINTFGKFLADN
T1 sequence (P78536 215-824 limits assumed): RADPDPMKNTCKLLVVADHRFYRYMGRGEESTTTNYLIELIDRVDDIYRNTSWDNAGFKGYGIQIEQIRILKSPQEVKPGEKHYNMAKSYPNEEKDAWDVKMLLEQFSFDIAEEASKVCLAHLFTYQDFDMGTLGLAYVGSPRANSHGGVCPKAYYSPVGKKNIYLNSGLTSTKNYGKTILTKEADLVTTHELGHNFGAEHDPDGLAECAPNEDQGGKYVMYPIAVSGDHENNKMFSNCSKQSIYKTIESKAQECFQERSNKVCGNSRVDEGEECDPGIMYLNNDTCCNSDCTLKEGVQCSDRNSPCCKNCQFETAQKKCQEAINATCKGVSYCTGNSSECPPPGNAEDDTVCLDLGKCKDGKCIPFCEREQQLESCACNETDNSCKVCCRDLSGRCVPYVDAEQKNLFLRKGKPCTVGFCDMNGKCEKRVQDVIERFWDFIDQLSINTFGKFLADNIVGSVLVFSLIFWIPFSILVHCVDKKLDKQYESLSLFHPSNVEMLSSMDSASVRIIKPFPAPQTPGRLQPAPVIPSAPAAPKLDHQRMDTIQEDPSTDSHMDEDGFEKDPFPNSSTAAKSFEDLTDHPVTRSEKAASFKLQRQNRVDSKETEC
T3 sequence (P78536 475-563): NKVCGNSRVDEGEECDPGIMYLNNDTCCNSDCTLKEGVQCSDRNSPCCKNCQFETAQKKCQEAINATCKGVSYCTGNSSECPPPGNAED
T5 sequence (P78536 18-474): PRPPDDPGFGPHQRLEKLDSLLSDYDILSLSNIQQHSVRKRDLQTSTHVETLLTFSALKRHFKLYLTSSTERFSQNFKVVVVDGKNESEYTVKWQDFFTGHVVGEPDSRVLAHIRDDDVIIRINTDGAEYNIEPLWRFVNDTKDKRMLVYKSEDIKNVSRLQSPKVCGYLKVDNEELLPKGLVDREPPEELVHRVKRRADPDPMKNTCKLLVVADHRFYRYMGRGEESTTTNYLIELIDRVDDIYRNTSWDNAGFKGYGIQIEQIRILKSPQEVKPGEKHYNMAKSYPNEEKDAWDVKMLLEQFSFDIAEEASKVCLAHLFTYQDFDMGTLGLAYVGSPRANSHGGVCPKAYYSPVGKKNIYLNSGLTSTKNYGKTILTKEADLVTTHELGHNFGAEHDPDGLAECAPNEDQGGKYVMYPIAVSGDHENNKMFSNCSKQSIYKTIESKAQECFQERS
T2 sequence (P78536 223-602): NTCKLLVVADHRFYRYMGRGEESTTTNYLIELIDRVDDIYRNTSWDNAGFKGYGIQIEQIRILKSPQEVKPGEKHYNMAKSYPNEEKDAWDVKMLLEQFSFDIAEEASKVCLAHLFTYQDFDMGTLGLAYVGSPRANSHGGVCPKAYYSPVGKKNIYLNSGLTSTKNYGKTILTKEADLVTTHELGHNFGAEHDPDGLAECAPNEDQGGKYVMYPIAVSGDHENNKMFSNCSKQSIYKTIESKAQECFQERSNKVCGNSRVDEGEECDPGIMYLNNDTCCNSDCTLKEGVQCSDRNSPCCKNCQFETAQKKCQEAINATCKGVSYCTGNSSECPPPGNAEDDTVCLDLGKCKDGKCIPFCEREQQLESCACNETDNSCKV
Chain of M1-602H603-671 (p-c-d-mpd (Nter)-MPD (Cter)) murine/human chimeric ADAM17 human Fc fusion (murine; human) (Q9Z0F8 other isoform, or with tags, fused parts or gaps mutant limits assumed, form in doubt): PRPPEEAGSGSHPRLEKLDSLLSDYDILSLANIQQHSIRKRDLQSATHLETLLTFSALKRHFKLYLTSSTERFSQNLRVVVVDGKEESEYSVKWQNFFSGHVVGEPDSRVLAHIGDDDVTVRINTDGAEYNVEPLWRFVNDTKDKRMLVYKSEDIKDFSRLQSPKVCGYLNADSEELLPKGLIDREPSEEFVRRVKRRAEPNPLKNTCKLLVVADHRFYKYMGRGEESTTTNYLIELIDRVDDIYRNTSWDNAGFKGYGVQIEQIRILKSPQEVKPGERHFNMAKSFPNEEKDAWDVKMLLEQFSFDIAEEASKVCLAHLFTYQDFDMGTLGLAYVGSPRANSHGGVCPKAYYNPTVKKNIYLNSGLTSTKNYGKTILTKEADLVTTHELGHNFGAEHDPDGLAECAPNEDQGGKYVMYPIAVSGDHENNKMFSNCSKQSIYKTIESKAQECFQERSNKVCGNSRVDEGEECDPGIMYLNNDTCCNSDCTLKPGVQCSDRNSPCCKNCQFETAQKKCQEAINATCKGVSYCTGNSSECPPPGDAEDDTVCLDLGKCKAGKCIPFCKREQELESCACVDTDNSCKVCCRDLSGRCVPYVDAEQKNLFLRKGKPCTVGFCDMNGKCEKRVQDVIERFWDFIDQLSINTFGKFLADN
T7 sequence (P78536 223-563): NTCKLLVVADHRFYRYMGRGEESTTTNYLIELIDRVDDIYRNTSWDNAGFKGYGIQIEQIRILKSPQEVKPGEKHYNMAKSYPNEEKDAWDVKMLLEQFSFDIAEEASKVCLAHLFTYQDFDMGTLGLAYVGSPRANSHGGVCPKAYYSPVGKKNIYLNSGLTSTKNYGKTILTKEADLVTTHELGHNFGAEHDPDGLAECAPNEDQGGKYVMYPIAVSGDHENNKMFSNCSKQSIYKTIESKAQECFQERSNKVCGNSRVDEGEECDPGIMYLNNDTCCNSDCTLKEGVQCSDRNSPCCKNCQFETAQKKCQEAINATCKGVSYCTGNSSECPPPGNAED
Chain of M1-671 (p-c-d-mpd) murine ADAM17 human Fc fusion (murine) (Q9Z0F8 18-671 limits assumed, form in doubt): as the sequence (Q9Z0F8 other isoform, or with tags, fused parts or gaps mutant limits assumed, form in doubt) above, with D589N, R593P counted along it
T4 sequence (P78536 603-671): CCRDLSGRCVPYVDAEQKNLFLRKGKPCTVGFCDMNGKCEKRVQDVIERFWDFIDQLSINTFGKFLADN
T6 sequence (P78536 475-602): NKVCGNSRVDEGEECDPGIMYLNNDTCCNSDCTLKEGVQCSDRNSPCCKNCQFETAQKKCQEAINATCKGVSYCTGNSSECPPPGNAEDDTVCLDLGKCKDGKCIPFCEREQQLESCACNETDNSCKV

Binder | binding result [1] | response (RU) [2] [RU] | response (RU) [3] [RU] | response (RU) [4] [RU] | Kd [5] [pM] | koff [5] [s⁻¹] | kon [5] [M⁻¹ s⁻¹] | IC50 (nM), inhibition of AREG-Nluc shedding from A431 cells [6] [nM] | IC50 (nM), inhibition of HB-EGF-Nluc shedding from A431 cells [6] [nM] | IC50 (nM), inhibition of TGFα-Nluc shedding from A431 cells [6] [nM] | IC50 (nM), inhibition of TNFα-Nluc shedding from A431 cells [6] [nM] | IC50 (nM), mean over the four substrates shed from A431 cells [6] [nM] | response (RU) [7] [RU] | response (RU) [8] [RU] | response (RU) [9] [RU] | response (RU) [10] [RU] | response (RU) [11] [RU] | response (RU) [12] [RU]
B1 | binds |  |  |  |  |  |  |  |  |  |  |  |  |  |  |  |  | 
B2 |  | < 10 | 90 to 140 | < 10 | 1270 | 0.00036 | 284000 | 0.067 | 0.062 | 0.093 | 0.054 | 0.069 | < 10 | < 10 | < 10 | < 10 | < 10 | < 10
